Measurements as given in PMC9735655, “Two Distinct Modes of DNA Binding by an MCM Helicase Enable DNA Translocation”.

Tests used:
[1] = target: MCM protein of Saccharolobus solfataricus with the C-terminal helix-turn-helix domain removed and a modified linker between the N-terminal domain and the AAA+ ATPase domain (Saccharolobus solfataricus) (UniProt Q9UXG1); assay: cryo-EM structure; SsoMCM at 1 mg/mL mixed 5:1 by volume with 1 mM oligonucleotide (T12, T16 or T20-CTATAG-T20), 5 mM ADP-BeF3, magnesium; plunge-frozen; two structural classes, also refined from merged particles
[2] = target: T1, SsoMCM (C-terminal HTH removed, modified interdomain linker; pEE078.1) (Saccharolobus solfataricus, UniProt Q9UXG1 1-265+=GGSGGS+275-612, internal_change); assay: cryo-EM; Mg2+, ADP-BeF3; class 1 (six subunits on DNA); Cryo-EM sample: protein 1 mg/mL mixed 5:1 (v/v) with 1 mM oligonucleotide, 5 mM fresh ADP-BeF3, magnesium present; buffer, salt, pH and temperature not stated in the material; conditions: protein: recombinant, tags: His6-SUMO removed with Ulp1, chain copies: 6
T1 sequence: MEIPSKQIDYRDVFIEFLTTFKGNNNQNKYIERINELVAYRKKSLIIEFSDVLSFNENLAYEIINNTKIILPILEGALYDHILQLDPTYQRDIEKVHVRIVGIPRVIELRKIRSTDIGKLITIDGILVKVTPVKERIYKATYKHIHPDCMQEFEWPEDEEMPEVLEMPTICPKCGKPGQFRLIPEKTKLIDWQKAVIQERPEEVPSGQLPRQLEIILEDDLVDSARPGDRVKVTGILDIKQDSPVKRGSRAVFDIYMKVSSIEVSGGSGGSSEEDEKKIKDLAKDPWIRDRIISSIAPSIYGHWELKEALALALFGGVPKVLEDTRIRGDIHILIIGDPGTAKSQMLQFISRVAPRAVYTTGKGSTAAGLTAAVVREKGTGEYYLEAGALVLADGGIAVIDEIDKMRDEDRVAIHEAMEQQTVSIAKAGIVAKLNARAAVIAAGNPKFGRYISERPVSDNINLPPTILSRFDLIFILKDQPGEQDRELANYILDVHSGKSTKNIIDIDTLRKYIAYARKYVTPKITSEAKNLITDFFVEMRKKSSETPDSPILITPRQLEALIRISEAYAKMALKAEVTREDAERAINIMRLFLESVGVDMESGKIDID

[3] = target: T1, SsoMCM (C-terminal HTH removed, …); assay: cryo-EM; Mg2+, ADP-BeF3; class 1 (six subunits on DNA, 2.48 A); Cryo-EM sample: protein 1 mg/mL mixed 5:1 (v/v) with 1 mM oligonucleotide, 5 mM fresh ADP-BeF3, magnesium present; buffer, salt, pH and temperature not stated in the material; conditions: protein: recombinant; tags: His6-SUMO removed with Ulp1; chain copies: 6; single strand

In the case of “MCM protein of Saccharolobus solfataricus with the C-terminal helix-turn-helix domain removed and a modified linker between the N-terminal domain and the AAA+ ATPase domain (from UniProt Q9UXG1 1-686) (enzyme)”, the stoichiometry N [1] is reported as 6.

TTTTTTTTTTTTTTTTTTTTCTATAGTTTTTTTTTTTTTTTTTTTT (ssDNA) [T20-CTATAG-T20]: binds ([2]; central 6-nt palindrome, potential X-shape with 20-mer poly-dT arms).

TTTTTTTTTTTTTTTT (ssDNA) [T16 (16-mer poly-dT)]: binds [3].

TTTTTTTTTTTT (ssDNA) [T12 (12-mer poly-dT)]: binds ([2]; single strand).
